Key:
[1] = biological target: T1, VHL (von Hippel-Lindau tumor suppressor protein), full-length (Homo sapiens (Human), UniProt P40337 1-213, 35S-methionine labeled in the in vitro assays); assay: co-immunoprecipitation with anti-FLAG, in vitro translated proteins
T1 construct: also called 35S-labeled VHL; 35S-labeled full-length VHL

[2] = biological target: T1, VHL (von Hippel-Lindau tumor suppressor …); assay: co-immunoprecipitation with anti-GAL4, in vitro translated proteins
[3] = biological target: 35S-labeled, in vitro translated full length HIF-1 alpha (human, UniProt Q16665 1-826, 35S-methionine labeled); assay: as above

B1: FLAG-tagged mutant N-TAD of HIF-1 alpha (PYI triplet substituted with three aspartic acid residues) (other, not shown: small tags and cut ends)
chain: KLELVEKLFAEDTEAKNPFSTQDTDLDLEMLADDDPMDDDFQLRSFDQLSPLES
notes: also called mt N-TAD; PYI mutant N-TAD
Question: Does B1 bind [1]?
Answer: Result: no binding

B2: GAL4/HIF-1 alpha 778-826 (other)
chain: MKLLSSIEQACDICRLKKLKCSKEKPKCAKCLKNNWECRYSPKTKRSPLTRAHLTEVESRLERLEQLFLLIFPREDLDMILKMDSLQDIKALLTGLFVQDNVNKDAVTDRLASVETDMPLTLRQHRISATSSSEESSNKGQRQLTVSLACRLLGQSMDESGLPQLTSYDCEVNAPIQGSRNLLQGEELLRALDQVN
Question: Does B2 bind [2]?
Answer: Result: no binding

B3: GAL4/VHL 114-154 fragment (other)
chain: MKLLSSIEQACDICRLKKLKCSKEKPKCAKCLKNNWECRYSPKTKRSPLTRAHLTEVESRLERLEQLFLLIFPREDLDMILKMDSLQDIKALLTGLFVQDNVNKDAVTDRLASVETDMPLTLRQHRISATSSSEESSNKGQRQLTVSGHLWLFRDAGTHDGLLVNQTELFVPSLNVDGQPIFANITLP
Question: Does B3 bind [3]?
Answer: Result: no binding

Reference: US20020048794A1 (published 2002)
